Here are results for one sequence from article PMC11237755.

This data set addresses T1, TtdV-His6;TtdW-His6 (Salmonella enterica serovar Typhimurium IR715 (ATCC14028 NalR);Salmonella enterica serovar Typhimurium IR715 (ATCC14028 NalR)) (UniProt Q8ZLP8+Q8ZLP7).
T1 sequence 1: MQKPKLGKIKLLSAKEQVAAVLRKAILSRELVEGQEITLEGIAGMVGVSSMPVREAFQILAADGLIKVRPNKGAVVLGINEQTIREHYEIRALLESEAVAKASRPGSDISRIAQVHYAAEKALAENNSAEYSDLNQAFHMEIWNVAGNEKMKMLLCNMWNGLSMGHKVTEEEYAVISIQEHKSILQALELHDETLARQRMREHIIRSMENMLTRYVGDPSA
T1 sequence 2: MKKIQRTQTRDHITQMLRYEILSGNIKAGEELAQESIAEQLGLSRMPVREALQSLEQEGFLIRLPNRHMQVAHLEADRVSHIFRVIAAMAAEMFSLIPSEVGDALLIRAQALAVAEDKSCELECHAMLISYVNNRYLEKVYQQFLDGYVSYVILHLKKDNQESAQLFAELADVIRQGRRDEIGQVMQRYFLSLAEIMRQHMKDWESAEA
Description: EMSA. Conditions: LightShift Chemiluminescent EMSA kit (binding buffer, salt and pH not given), 20 min room temperature; 20 fmol probe, 6% 0.5x TBE gel (TtdV/TtdW); 50 fmol …. A general note: In EMSA bound probe runs differently from free probe, usually more slowly.

Regarding “CGTATGCTGACCCGCTATGTTGGTGACCCTTCTGCCTGATCTTTTCGCCTGCGTGAGCATCGCAGGCGCTTCAACCAATTCTTCAATTCTATTAATCACGTCCAGTAACGATCTAACCACGATCTTGATGTAGATCCCACTCCTGCATCTTTCCTGAGAAACGATTTGACTTAGTTTTTGTATGGGAATAATTTCTCCCTGTCAACATTGGATACAATATCATATATCATTGATTGGATAATTATAAATATGGAACCCATTACCCTTACCTTATGTTTATTGGTGTTCGCCC (double strand) [Probe 4]”, the binding entry is given as “binds”.
